The results in this text go back to the supplement of paper PMC6757056.

The chains are these.
B1: library; a variant is named by its letters at N, in order (parent)
chain: GCUGUCACCGAGAAACUGUGAAGUAUAUCUUAAACCUGGGCACUUAAAAGAUAUAUGGAGUUAGUAGUGCAACCUGCUCGGUCUGAUGAGUCCNNNNNNGGACGAAACAGC

± gives the standard deviation of the averaged measurements.

The variants in series [1] derive from B1. The series can be described thus: normalized RNA/DNA level without ligand (relative to sTRSVctl = 100) (log10 (% of sTRSVctl)); HEK293T; ligand: cyclic di-GMP (c-di-GMP-II aptamer); higher = less ribozyme self-cleavage, higher mRNA level. The conditions noted are these: reporter: mCherry (pCS4076), ligand present: no. The essentials:
(§1)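 Ribozyme switch library plasmids linked to reporters were introduced into HEK293T cells at 4 µg per 6-well well, with ligand, if any, added 1 h before. Total RNA was extracted with EDTA 72 h later, reverse-transcribed, amplified, barcoded and sequenced. RNA level was computed from RNA over DNA reads relative to a spiked-in non-cleaving sequence or the top sequences, then scaled and log-transformed. The top set was 25 sequences, values were ×100 and log10, and the cutoff was ≥100 DNA reads.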

Series [2] covers variants of B1. The series can be described thus: normalized RNA/DNA level with ligand (relative to sTRSVctl = 100) (log10 (% of sTRSVctl)); HEK293T; ligand: cyclic di-GMP (c-di-GMP-II aptamer); ligand concentration (+) RNA-Seq: 1 mM; higher = less ribozyme self-cleavage, higher mRNA level. The note with it: reporter: mCherry (pCS4076), ligand present: yes. The method in brief: as §1

For the variant GCUGUCACCGAGAAACUGUGAAGUAUAUCUUAAACCUGGGCACUUAAAAGAUAUAUGGAGUUAGUAGUGCAACCUGCUCGGUCUGAUGAGUCCUUAGAGGGACGAAACAGC [UUAGAG], the “normalized RNA/DNA level without ligand (log10)” value in series [1] is 1.63 ± 0.0024. For the same variant, the “normalized RNA/DNA level with ligand (log10)” value in series [2] worked out at 1.76 ± 0.047.
Regarding GCUGUCACCGAGAAACUGUGAAGUAUAUCUUAAACCUGGGCACUUAAAAGAUAUAUGGAGUUAGUAGUGCAACCUGCUCGGUCUGAUGAGUCCUUAGACGGACGAAACAGC [UUAGAC], in series [1], the “normalized RNA/DNA level without ligand (log10)” value was found to be 1.702 ± 0.0078. Besides, the “normalized RNA/DNA level with ligand (log10)” value in series [2] was determined as 1.83 ± 0.1.
Regarding GCUGUCACCGAGAAACUGUGAAGUAUAUCUUAAACCUGGGCACUUAAAAGAUAUAUGGAGUUAGUAGUGCAACCUGCUCGGUCUGAUGAGUCCUUAGAUGGACGAAACAGC [UUAGAU], the “normalized RNA/DNA level without ligand (log10)” value in series [1] came to 1.7 ± 0.031. In addition, in series [2], the “normalized RNA/DNA level with ligand (log10)” value stood at 1.83 ± 0.082.
Turning to GCUGUCACCGAGAAACUGUGAAGUAUAUCUUAAACCUGGGCACUUAAAAGAUAUAUGGAGUUAGUAGUGCAACCUGCUCGGUCUGAUGAGUCCAUAGCGGGACGAAACAGC [AUAGCG], the “normalized RNA/DNA level without ligand (log10)” value in series [1] is 1.73 ± 0.02. Besides, the “normalized RNA/DNA level with ligand (log10)” value in series [2] stood at 1.85 ± 0.15.
With GCUGUCACCGAGAAACUGUGAAGUAUAUCUUAAACCUGGGCACUUAAAAGAUAUAUGGAGUUAGUAGUGCAACCUGCUCGGUCUGAUGAGUCCAUAGCAGGACGAAACAGC [AUAGCA], in series [1], the “normalized RNA/DNA level without ligand (log10)” value was 1.71 ± 0.043. For the same variant, the “normalized RNA/DNA level with ligand (log10)” value in series [2] came out at 1.81 ± 0.15.
Regarding GCUGUCACCGAGAAACUGUGAAGUAUAUCUUAAACCUGGGCACUUAAAAGAUAUAUGGAGUUAGUAGUGCAACCUGCUCGGUCUGAUGAGUCCAUAGCUGGACGAAACAGC [AUAGCU], the “normalized RNA/DNA level without ligand (log10)” value in series [1] turned out to be 1.68 ± 0.024. Further, the “normalized RNA/DNA level with ligand (log10)” value in series [2] was 1.78 ± 0.069.
With GCUGUCACCGAGAAACUGUGAAGUAUAUCUUAAACCUGGGCACUUAAAAGAUAUAUGGAGUUAGUAGUGCAACCUGCUCGGUCUGAUGAGUCCAUAGCCGGACGAAACAGC [AUAGCC], the “normalized RNA/DNA level without ligand (log10)” value in series [1] is 1.76 ± 0.022. In addition, in series [2], the “normalized RNA/DNA level with ligand (log10)” value came out at 1.87 ± 0.095.
Regarding GCUGUCACCGAGAAACUGUGAAGUAUAUCUUAAACCUGGGCACUUAAAAGAUAUAUGGAGUUAGUAGUGCAACCUGCUCGGUCUGAUGAGUCCGUAGCGGGACGAAACAGC [GUAGCG], the “normalized RNA/DNA level without ligand (log10)” value in series [1] stood at 1.81 ± 0.022. In addition, the “normalized RNA/DNA level with ligand (log10)” value in series [2] was determined as 1.88 ± 0.059.
GCUGUCACCGAGAAACUGUGAAGUAUAUCUUAAACCUGGGCACUUAAAAGAUAUAUGGAGUUAGUAGUGCAACCUGCUCGGUCUGAUGAGUCCGUAGCUGGACGAAACAGC [GUAGCU]: the “normalized RNA/DNA level without ligand (log10)” value in series [1] was 1.74 ± 0.065. For the same variant, the “normalized RNA/DNA level with ligand (log10)” value in series [2] is 1.83 ± 0.1.
For the variant GCUGUCACCGAGAAACUGUGAAGUAUAUCUUAAACCUGGGCACUUAAAAGAUAUAUGGAGUUAGUAGUGCAACCUGCUCGGUCUGAUGAGUCCGUAGCCGGACGAAACAGC [GUAGCC], in series [1], the “normalized RNA/DNA level without ligand (log10)” value is 1.69 ± 0.071. In series [2], the “normalized RNA/DNA level with ligand (log10)” value was found to be 1.8 ± 0.11.
Regarding GCUGUCACCGAGAAACUGUGAAGUAUAUCUUAAACCUGGGCACUUAAAAGAUAUAUGGAGUUAGUAGUGCAACCUGCUCGGUCUGAUGAGUCCAUAGAUGGACGAAACAGC [AUAGAU], the “normalized RNA/DNA level without ligand (log10)” value in series [1] turned out to be 1.58 ± 0.056. The “normalized RNA/DNA level with ligand (log10)” value in series [2] came out at 1.72 ± 0.12.
GCUGUCACCGAGAAACUGUGAAGUAUAUCUUAAACCUGGGCACUUAAAAGAUAUAUGGAGUUAGUAGUGCAACCUGCUCGGUCUGAUGAGUCCAUAGAGGGACGAAACAGC [AUAGAG]: the “normalized RNA/DNA level without ligand (log10)” value in series [1] stood at 1.46 ± 0.13. Also, the “normalized RNA/DNA level with ligand (log10)” value in series [2] was 1.73 ± 0.082.
In the same order, the values of GCUGUCACCGAGAAACUGUGAAGUAUAUCUUAAACCUGGGCACUUAAAAGAUAUAUGGAGUUAGUAGUGCAACCUGCUCGGUCUGAUGAGUCCUUAGCUGGACGAAACAGC [UUAGCU] are 1.775 ± 0.0051 and 1.89 ± 0.062.
On to GCUGUCACCGAGAAACUGUGAAGUAUAUCUUAAACCUGGGCACUUAAAAGAUAUAUGGAGUUAGUAGUGCAACCUGCUCGGUCUGAUGAGUCCUUAGCAGGACGAAACAGC [UUAGCA], for which the “normalized RNA/DNA level without ligand (log10)” value in series [1] was determined as 1.72 ± 0.052. Besides, the “normalized RNA/DNA level with ligand (log10)” value in series [2] was 1.83 ± 0.12.
In the case of GCUGUCACCGAGAAACUGUGAAGUAUAUCUUAAACCUGGGCACUUAAAAGAUAUAUGGAGUUAGUAGUGCAACCUGCUCGGUCUGAUGAGUCCUUAGCCGGACGAAACAGC [UUAGCC], the “normalized RNA/DNA level without ligand (log10)” value in series [1] was determined as 1.76 ± 0.082. Moreover, the “normalized RNA/DNA level with ligand (log10)” value in series [2] was found to be 1.83 ± 0.13.
In the case of GCUGUCACCGAGAAACUGUGAAGUAUAUCUUAAACCUGGGCACUUAAAAGAUAUAUGGAGUUAGUAGUGCAACCUGCUCGGUCUGAUGAGUCCUUAGCGGGACGAAACAGC [UUAGCG], the “normalized RNA/DNA level without ligand (log10)” value in series [1] amounted to 1.79 ± 0.032. Moreover, the “normalized RNA/DNA level with ligand (log10)” value in series [2] is 1.86 ± 0.11.
In the case of GCUGUCACCGAGAAACUGUGAAGUAUAUCUUAAACCUGGGCACUUAAAAGAUAUAUGGAGUUAGUAGUGCAACCUGCUCGGUCUGAUGAGUCCUUAGGAGGACGAAACAGC [UUAGGA], the “normalized RNA/DNA level without ligand (log10)” value in series [1] came to 1.57 ± 0.079. Moreover, in series [2], the “normalized RNA/DNA level with ligand (log10)” value was 1.76 ± 0.089.
Turning to GCUGUCACCGAGAAACUGUGAAGUAUAUCUUAAACCUGGGCACUUAAAAGAUAUAUGGAGUUAGUAGUGCAACCUGCUCGGUCUGAUGAGUCCCUAGCGGGACGAAACAGC [CUAGCG], the “normalized RNA/DNA level without ligand (log10)” value in series [1] was determined as 1.772 ± 0.015. Besides, in series [2], the “normalized RNA/DNA level with ligand (log10)” value was determined as 1.85 ± 0.18.
Take GCUGUCACCGAGAAACUGUGAAGUAUAUCUUAAACCUGGGCACUUAAAAGAUAUAUGGAGUUAGUAGUGCAACCUGCUCGGUCUGAUGAGUCCCUAGCCGGACGAAACAGC [CUAGCC]: in series [1], the “normalized RNA/DNA level without ligand (log10)” value worked out at 1.77 ± 0.022. Also, in series [2], the “normalized RNA/DNA level with ligand (log10)” value amounted to 1.83 ± 0.075.
Consider GCUGUCACCGAGAAACUGUGAAGUAUAUCUUAAACCUGGGCACUUAAAAGAUAUAUGGAGUUAGUAGUGCAACCUGCUCGGUCUGAUGAGUCCCUAGCUGGACGAAACAGC [CUAGCU], for which the “normalized RNA/DNA level without ligand (log10)” value in series [1] was determined as 1.72 ± 0.027. For the same variant, the “normalized RNA/DNA level with ligand (log10)” value in series [2] was found to be 1.85 ± 0.13.
As for GCUGUCACCGAGAAACUGUGAAGUAUAUCUUAAACCUGGGCACUUAAAAGAUAUAUGGAGUUAGUAGUGCAACCUGCUCGGUCUGAUGAGUCCCUAGCAGGACGAAACAGC [CUAGCA], in series [1], the “normalized RNA/DNA level without ligand (log10)” value is 1.71 ± 0.064. In addition, the “normalized RNA/DNA level with ligand (log10)” value in series [2] was 1.78 ± 0.13.
Consider GCUGUCACCGAGAAACUGUGAAGUAUAUCUUAAACCUGGGCACUUAAAAGAUAUAUGGAGUUAGUAGUGCAACCUGCUCGGUCUGAUGAGUCCAUAGGAGGACGAAACAGC [AUAGGA], for which the “normalized RNA/DNA level without ligand (log10)” value in series [1] stood at 1.35 ± 0.13. Further, in series [2], the “normalized RNA/DNA level with ligand (log10)” value is 1.55 ± 0.15.
On to GCUGUCACCGAGAAACUGUGAAGUAUAUCUUAAACCUGGGCACUUAAAAGAUAUAUGGAGUUAGUAGUGCAACCUGCUCGGUCUGAUGAGUCCCUAGGAGGACGAAACAGC [CUAGGA], for which the “normalized RNA/DNA level without ligand (log10)” value in series [1] amounted to 1.54 ± 0.055. Moreover, in series [2], the “normalized RNA/DNA level with ligand (log10)” value was 1.72 ± 0.099.
On to GCUGUCACCGAGAAACUGUGAAGUAUAUCUUAAACCUGGGCACUUAAAAGAUAUAUGGAGUUAGUAGUGCAACCUGCUCGGUCUGAUGAGUCCCUAGAUGGACGAAACAGC [CUAGAU], for which, in series [1], the “normalized RNA/DNA level without ligand (log10)” value was 1.65 ± 0.017. Also, in series [2], the “normalized RNA/DNA level with ligand (log10)” value came to 1.79 ± 0.069.
For the variant GCUGUCACCGAGAAACUGUGAAGUAUAUCUUAAACCUGGGCACUUAAAAGAUAUAUGGAGUUAGUAGUGCAACCUGCUCGGUCUGAUGAGUCCCUAGAGGGACGAAACAGC [CUAGAG], in series [1], the “normalized RNA/DNA level without ligand (log10)” value was 1.589 ± 0.011. Also, the “normalized RNA/DNA level with ligand (log10)” value in series [2] is 1.74 ± 0.08.
In the same order, the values of GCUGUCACCGAGAAACUGUGAAGUAUAUCUUAAACCUGGGCACUUAAAAGAUAUAUGGAGUUAGUAGUGCAACCUGCUCGGUCUGAUGAGUCCGUAGACGGACGAAACAGC [GUAGAC] are 1.595 ± 0.0029 and 1.79 ± 0.13.
